For 5 sequences, protein production results are on record in a protein production outcome set (Wang et al. 2014).

The nature of the data set: label from the status in PepcDB records.
For the sequence “MAANMYRVGDYVYFENSSSNPYLIRRIEELNKTANGNVEAKVVCFYRRRDISSTLIALADKHATLSVCYKAGPGADNGEEGEIEEEMENPEMVDLPEKLKHQLRHRELFLSRQLESLPATHIRGKCSVTLLNETESLKSYLEREDFFFYSLVYDPQQKTLLADKGEIRVGNRYQADITDLLKEGEEDGRDQSRLETQVWEAHNPLTDKQIDQFLVVARSVGTFARALDCSSSVRQPSLHMSAAAASRDITLFHAMDTLHKNIYDISKAISALVPQGGPVLCRDEMEEWSASEANLFEEALEKYGKDFTDIQQDFLPWKSLTSIIEYYYMWKTTDRYVQQKRLKAAEAESKLKQVYIPNYNKPNPNQISVNNVKAGVVNGTGAPGQSPGAGRACESCYTTQSYQWYSWGPPNMQCRLCASCWTYWKKYGGLKMPTRLDGERPGPNRSNMSPHGLPARSSGSPKFAMKTRQAFYLHTTKLTRIARRLCREILRPWHAARHPYLPINSAAIKAECTARLPEASQSPLVLKQAVRKPLEAVLRYLETHPRPPKPDPVKSVSSVLSSLTPAKVAPVINNGSPTILGKRSYEQHNGVDGNMKKRLLMPSRGLANHGQARHMGPSRNLLLNGKSYPTKVRLIRGGSLPPVKRRRMNWIDAPDDVFYMATEETRKIRKLLSSSETKRAARRPYKPIALRQSQALPPRPPPPAPVNDEPIVIED”, the protein production entry is listed as “failed”. For “MMFLSKTLTSLGQWPHSLPRISLMDRYVARQLIPPFLFSVGVVASLGLAIGNLSDLGNKIVEKNLPVAKAAEVLLLKVPEFLAYSLPVAVMLATMMTFGRLSGDCEIIAIRSCGVSLYRLILPAVVLSLLVTGWAFVLTEWVVPVANYRATSILIESIDEEHPFWQNRDVFYPEFEEIKLDNGQTARRLKSLVYAEKFDGKEMQNLTVLQWTENHLKHIVLSDNATWNNDNKRWDFFHGTVYRLTETEDYQEAVPFTNKQIALPQSAFDFARQGRDPYEMTIAEAQDYIKILKLIGDEKKTQFFQVRTEQKLAFPFVCIVFAVVGSAIGARPQRISRATGFGLTIVIIFAYYILGFFSGSLGIVGLISPTLAAWLPNFVGLGVGIWLLYEFNQG” the value was “failed”; for “MEIIIYIFVSIAIISLQAITPFVIRKSECFGVNVGERANRNAELTQLKKQYVGQVILWTVLVAIIGIALIQGFHWSENIQAGIFIISMFGQLIVSFIIYYRFHHTTLQWKREKIESGEISTNSIIMVDTSFHRRKMVISYTWFVVPLLIFIITLAITAVFYPFAPEEFPVHFDMNGVVTDTVQKSVRAALLLPMLQLGMIALFIFINFVIARSKQTVENENPADSLKRNMLFRQISSKAMLIMCVILVIDFLVMQAVILLSLSPEIMMITMSISIILILLGTVLLAVKVGQGGSRLKFANEPDNVNKPIRDDDAFWKAGVIYFNRNDPALFVEKRFGIGWTINTARPVAWLTFVFIIAAIVFISILF”, “failed”.

In the case of “MMFDEFKRTILREDIKYEIFRKFFHIFSLIVLVFYRINFWIGLFSNILFMILYLSSEIFRITEKKILFFKNISNIILKSRKILPNRVSFSPVFLFLGILISYCLSMHPFNYIGIFSVCLGDGFASLIGKLIPSFKLVNGKTISGSLVVFCVTFFSYYYFFPYLTVALILGILAVLVELFDAANYDNLFLPLVVSASSYFLTSFFYSQ”, the protein production entry is given as “failed”. Next, “PSFNLGYIGLNNRNEYLKNPKVRQAISMAINRRAVVDAFWSGLGRTDTSIVPPALGWATSSKVPADYKFDPAAAKKLLAEAGYPNGFTLDFWYMPITRSYFPQPKASAEAMAADLADVGIKVNLKTEDWAKYLDDLFAGRLSMFQIGLIGDYGDPDYFYGALYNPTSTNDIGWNAPAELDTLLQQARSGLTRQARAQAYARIHELTYNAGYRIPLVHSQ”: “failed”.
